According to article PMC8063739:

Molecular target: 11th type II cohesin module of the primary scaffoldin ScaA1 of B. cellulosolvens (BcCohScaA1_(11)) (Bacteroides (Pseudobacteroides) cellulosolvens) (UniProt Q9FDJ9)
Test: ITC; 308 K; Doc constructs in the cell titrated with 28 injections of 10 μl BcCohScaA1_(11); single-site model

UniProt Q9FDJ9, sequence (Q9FDJ9 entry or part of it): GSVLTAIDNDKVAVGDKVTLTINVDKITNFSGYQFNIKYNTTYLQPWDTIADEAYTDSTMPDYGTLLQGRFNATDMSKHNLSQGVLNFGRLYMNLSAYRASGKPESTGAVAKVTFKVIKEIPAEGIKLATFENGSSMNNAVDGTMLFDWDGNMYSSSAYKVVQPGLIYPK

| Substance | Ka [M⁻¹] | dH [kcal/mol] | stoichiometry N |
| --- | --- | --- | --- |
| TrxA-BcDocCel48 mutant M1 + F60A (domain or fragment) | 58400 | -60.9 | 1.01 |
| Wild-type BcDocCel48 fused to TrxA (TrxA-BcDocCel48) (domain or fragment) | 3.31e+07 | -15.2 | 0.98 |
| TrxA-BcDocCel48 mutant N16A/N49A (domain or fragment) | 136000 | -14.1 | 0.99 |
| TrxA-BcDocCel48 mutant Q25A/Q58A (domain or fragment) | 1.35e+06 | -8.86 | 0.99 |
| TrxA-BcDocCel48 mutant M2 + F27A (domain or fragment) | 445000 | -13.2 | 1.01 |

Further lines, results first:

| Ka [M⁻¹] | dH [kcal/mol] | stoichiometry N | Substance |
| --- | --- | --- | --- |
| 1.41e+06 | -17.7 | 0.99 | TrxA-BcDocCel48 mutant M2 (M50S/A51D) (domain or fragment) |
| 1.11e+07 | -16 | 0.98 | TrxA-BcDocCel48 mutant M1 (M17S/A18D) (domain or fragment) |
| 1.2e+06 | -9.3 | 1 | TrxA-BcDocCel48 mutant M21A/I54A (domain or fragment) |
